Experimental data as given in the supplement of paper PMC10567573.

B1: GNB5 (parent)
chain: DINSVRYYPSGDAFASGSDDATCR

Variants of: B1
Test: protein stability index of a GFP-peptide fusion (GPS, HEK-293T) (PSI 1-6); higher = more stable
Conditions: c terminus: a fixed tail appended
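Further: lentivirally expressed fusions sorted by FACS into six bins by GFP to DsRed ratio, PSI derived from sequencing read proportions per bin multiplied by bin number.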

Protein stability index of substitutions, site by site:
G11: R 3.67, W 2.91, P 3.93, H 3.62, S 4.09, N 3.81, K 3.68, C 3.23, A 3.61, E 4.72, Q 3.91, T 3.74, Y 3.48, F 3.61, V 3.46
S10: N 3.95, M 3.43, G 4.35, R 3.4, V 3.73, K 3.71, A 3.76, P 4.23, Q 4.08, Y 3.1, L 3.43, D 4.32, I 3.76, W 3.35
I2: R 4.36, H 4.51, Q 4.72, W 3.99, V 3.93, P 4.92, L 3.82, D 5.39, E 4.87, S 4.6, N 4.92
D20: P 3.4, V 3.27, W 2.16, R 3.2, C 3.53, L 3.15, K 3.06, Q 3.69, M 3.13, T 3.58, S 3.47, G 3.61, Y 2.6, H 3.04, A 3.44, F 2.5
N3: T 3.77, V 3.56, Y 3.68, H 4.43, W 3.74, R 4.55, E 4.52, Q 4.31, S 4.07, G 4.53, A 4.66, P 4.64, L 3.35, C 3.87, F 3.76, D 5.08
P9: Q 3.8, I 2.7, L 3.26, K 3.62, S 4.17, T 4.02, C 3.17, A 3.59, D 4.43, Y 3.35, V 3.62, F 2.74, N 3.82, H 3.52, G 4.13
A21: L 3.82, W 2.79, C 3.82, S 3.91, F 3.3, R 3.63, Q 3.98, N 4.16, P 4.16, E 4.38, K 3.8, M 3.44, T 3.79, H 3.62
T22: W 3, P 3.56, H 4.06, R 3.57, E 4.86, I 3.84, C 3.65, Q 4.15, G 4.05, A 3.92, Y 2.94, V 3.8, D 3.76
S18: Q 3.81, A 3.35, H 3.82, R 3.12, P 3.74, L 3.55, M 3.49, K 3.55, D 4.24, V 3.33, C 3.88, E 4.43, F 3.26, T 4.06, Y 3.43, I 3.56, N 4
S16: V 3.84, I 3.27, Y 3.55, D 4.27, E 4.55, F 3.46, A 4.04, C 3.66, G 4.28, W 3.15, Q 3.78
D12: N 3.06, T 3.31, S 3.46, L 2.87, Q 3.46, V 2.94, F 2.69, A 3.4, I 3.08, Y 3.19, R 3.33, H 3.34, W 2.77, E 3.61
Y8: N 4.34, A 4.49, Q 4.77, I 4.5, W 4.24, V 4.55, M 4.55, D 4.87, H 3.78, E 4.8, P 4.63, T 4.45, F 3.82
D1: S 4.74, M 3.81, I 3.48, Q 4.23, R 4.04, A 4.18, H 3.48, G 4.36, K 3.85, P 3.33, L 3.73, V 3.58, F 2.54, W 2.68, N 4.37
C23: E 4.74, K 4.41, P 4.14, I 4, H 4.3, D 4.48, S 4.05, T 4.55, F 3.95, Y 3.9, M 3.62, L 3.95, W 3.14, Q 4.13, A 4.53
G17: N 3.68, M 3.29, F 2.93, V 3.65, A 3.74, L 3.12, H 3.4, E 4.34, C 3.66, R 3.65, K 3.65
F14: E 5, D 4.16, A 4.21, N 3.8, S 4.64, G 5.08, H 3.99, Y 4.09, K 4.12, T 4.75, W 3.94
R6: L 3.56, W 3.33, A 4.44, N 4.31, K 4.34, C 3.9, Y 3.62, M 4.04, I 3.88, E 5.13, G 4.3, H 4.26, T 4.82, F 3.57, V 3.91, Q 4.64
S4: Y 3.75, P 4.32, F 3.48, C 3.44, V 2.55, W 3.22, D 4.53, A 3.95, Q 3.83, L 3.42, R 3.81, M 4.21, N 3.55
A13: P 4.14, T 4, F 3.12, L 3.44, H 4.02, Q 4.4, R 3.81, V 3.69, G 4.03, Y 3.22, S 3.88, D 4.47, C 3.71, E 4.66, M 3.69, W 3.42
D19: I 3.03, K 3.7, E 4.15, G 3.79, F 2.39, C 2.85, S 3.4, M 2.95, T 3.25, A 2.88, Q 3.75, H 3.12, P 3.4, W 3.03, N 3.2
Y7: D 4.77, W 3.11, S 4.69, L 3.61, Q 4.21, A 4.5, R 4.2, G 4.39, K 4.35, P 4.46, E 5.19, M 4.12, F 3.87, I 3.76, N 4.26, V 4.51
A15: K 3.58, Q 3.86, N 4.12, T 3.63, F 2.83, S 3.66, I 3.43, H 3.7, C 3.66, G 3.51, V 3.91, M 3.57, R 2.99
V5: G 3.77, Q 3.85, H 3.91, P 4.51, Y 3.6, N 3.46, R 3.73, S 4.26, C 3.81, A 4.38, L 3.49, D 4.41, E 4.61
R24: K 4.19, N 3.59, W 3.53, I 3.77, C 4.06, P 4.3, L 3.63, G 4.59, Y 3.99, D 4.32, H 4.29
